The experiment has as its target hTIGIT on the surface of T cells of B-hPD-1/hTIGIT double humanized mice (human extracellular region in the mouse genome (C57BL/6)) (UniProt Q495A1). Put plainly: flow cytometry on spleen cells of a B-hPD-1/hTIGIT mouse, secondary anti-human Fc FITC; Q3 (TCRβ positive, stain negative) 30.3%. For orientation: A flow cytometer gives signals particle by particle.

Here are results for 1 substance from US20220348650A1.

hTIGIT on the surface of T cells of B-hPD-1/hTIGIT double humanized mice (human extracellular region in the mouse genome (C57BL/6)), sequence (Q495A1 22-141 limits assumed): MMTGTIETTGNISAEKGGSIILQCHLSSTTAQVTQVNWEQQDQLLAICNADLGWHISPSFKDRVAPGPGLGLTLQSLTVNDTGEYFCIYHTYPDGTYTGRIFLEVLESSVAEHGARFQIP

In the case of IgG1 isotype control (antibody), the % of events in quadrant Q2 (mouse TCRβ positive and human IgG positive) is 2.61%.
